Where two headings read alike, the source gives them in different places. Blank lines part the entries; values can stand above or below the molecule they belong to.
Experiments:
[1] = biological target: selected hNGAL muteins from the library randomized at positions 33, 36, 41, 52, 54, 68, 70, 79, 81, 134, 136 and 138 (Homo sapiens, UniProt P80188); test: ELISA, hexachloronorbornene hapten; assay type: binding; settings: preliminary, data not shown
Excerpt: The hNGAL library obtained in Example 2 was used to generate muteins having affinity to a hexachloronorbonene hapten. In more detail, the hexachloronorbornene hapten used was hexachloronorbornene N—(CH2)5—COOH the synthesis of which was reported by Hilvert et al., J. Am. Chem. Soc. 1989, Vol. 111, 9261-9262 (compound 2 in FIG. 1 of Hilvert et al) which represents a transition state analogue for the [4+2] Diels-Alder reaction (see also, Xu et al., Science, 1999, Vol. 286, 2345-2348). Generation of the hNGAL muteins were carried out essentially in accordance with the experimental procedure as described in Example 3 above and muteins with binding activity to the to hexachloronorbornene hapten were isolated and characterized by ELISA.

[2] = biological target: T1, hNGAL mutein Tb7, SEQ ID NO: 2 (Gln28His, Val33Gln, Leu36Arg, Ile41Ala, Tyr52Thr, Thr54Gln, Ser68Ala, Leu70Arg, Trp79Ala, Arg81Met, Cys87Ser, Lys134Ser, Tyr138L (Homo sapiens, UniProt P80188, C107S/I61A/K154S/L56R/L90R/Q48H/R101M/S88A/T165A/T74Q/V53Q/W99A/Y158L/Y72T)); test: SPR (Biacore), immobilized Me•DTPA-RNase; assay type: binding; settings: 5 μl/min; for Kd: from the kinetic analysis, read-out: KD
T1 construct: the mature hNGAL protein and the C-terminal Strep-tag II; OmpA signal peptide (N, cleaved yes); made in house; host or cells: E. coli BL21 or TG1-F- (periplasm), plasmid pNGAL15
T1 sequence (P80188 21-198 Q48H/V53Q/L56R/I61A/Y72T/T74Q/S88A/L90R/W99A/R101M/C107S/K154S/Y158L/T165A): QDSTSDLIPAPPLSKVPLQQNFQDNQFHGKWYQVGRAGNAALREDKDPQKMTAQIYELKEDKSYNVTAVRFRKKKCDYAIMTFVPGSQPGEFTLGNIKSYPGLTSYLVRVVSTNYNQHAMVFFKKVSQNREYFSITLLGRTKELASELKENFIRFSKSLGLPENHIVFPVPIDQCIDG
Description: (§1) Real time analysis of hNGAL variants was performed on a BIAcore X system (BIAcore, Uppsala, Sweden) using PBS/t (PBS containing 0.005% (v/v) Tween 20) as running buffer. 5 to 27 μg/ml solutions of the Me•DTPA-RNase conjugate in 10 mM Na-acetate, pH 5.0 were immobilized on a CM5 chip using standard amine coupling chemistry, resulting in a ligand density of 240 to 1800 resonance units (RU). The purified hNGAL variant was applied at a flow rate of 5 or 25 μl/min at concentrations of 0.5 up to 500 nM. The sensorgrams were corrected by subtraction of the corresponding signals measured for the control channel, which had been activated and blocked with ethanolamine. Kinetic data evaluation was performed by global fitting with BIAevaluation software V 3.0 (Karlsson et al. (1991) J. Immunol. Methods 145, 229-240). Alternatively, the plateau values at the end of the association phase (after 200 s) were plotted against the applied protein concentration and fitted as in the ELISA (see above) to determine the equilibrium dissociation constants (KO.
(§2) Finally, the hNGAL variants were analyzed by SPR using a Biacore CM-5 chip with the covalently attached Y-DTPA-RNaseA conjugate and applying the purified recombinant proteins (Table 3). […] The improved KD values result primarily from slower ligand dissociation.

[3] = biological target: T2, hNGAL mutein Tb7.N9, SEQ ID NO: 6 (Tb7 + A79L/I80T) (Homo sapiens, UniProt P80188, C107S/I100T/I61A/K154S/L56R/L90R/Q48H/R101M/S88A/T165A/T74Q/V53Q/W99L/Y158L/Y72T); test: SPR (Biacore), immobilized Me•DTPA-RNase; assay type: binding; settings: 5 μl/min
T2 construct: the mature hNGAL protein and the C-terminal Strep-tag II; OmpA signal peptide (N, cleaved yes); made in house; host or cells: E. coli BL21 or TG1-F- (periplasm), plasmid pNGAL15
T2 sequence (P80188 21-198 Q48H/V53Q/L56R/I61A/Y72T/T74Q/S88A/L90R/W99L/I100T/R101M/C107S/K154S/Y158L/T165A): as the sequence (P80188 21-198 Q48H/V53Q/L56R/I61A/Y72T/T74Q/S88A/L90R/W99A/R101M/C107S/K154S/Y158L/T165A) above, with A79L, I80T counted along it
Description: as §1, §2

[4] = biological target: T3, hNGAL mutein Tb7.N9.N34, SEQ ID NO: 7 (Tb7.N9 + S127Q) (Homo sapiens, UniProt P80188, C107S/I100T/I61A/K154S/L56R/L90R/Q48H/R101M/S147Q/S88A/T165A/T74Q/V53Q/W99L/Y158L/Y72T); test: SPR (Biacore), immobilized Me•DTPA-RNase; assay type: binding; settings: 5 μl/min
T3 construct: the mature hNGAL protein and the C-terminal Strep-tag II; Strep-tag II (C); OmpA signal peptide (N, cleaved yes); made in house; host or cells: E. coli BL21 or TG1-F- (periplasm), plasmid pNGAL15
T3 sequence (P80188 21-198 with the stated changes): as the sequence (P80188 21-198 Q48H/V53Q/L56R/I61A/Y72T/T74Q/S88A/L90R/W99A/R101M/C107S/K154S/Y158L/T165A) above, with A79L, I80T, S127Q counted along it
Description: as §1, §2

[5] = biological target: T4, hNGAL mutein Ya6, SEQ ID NO: 8 (Tb7.N9.N34 with Thr136Ser) (Homo sapiens, UniProt P80188, C107S/I100T/I61A/K154S/L56R/L90R/Q48H/R101M/S147Q/S88A/T156S/T165A/T74Q/V53Q/W99L/Y158L/Y72T); test: SPR (Biacore), immobilized Me•DTPA-RNase; assay type: binding; settings: 5 μl/min; for Kd: from the kinetic analysis, read-out: KD
T4 construct: the mature hNGAL protein and the C-terminal Strep-tag II; Strep-tag II (C); OmpA signal peptide (N, cleaved yes); made in house; host or cells: E. coli BL21 or TG1-F- (periplasm), plasmid pNGAL15
T4 sequence (P80188 21-198 with the stated changes): as the sequence (P80188 21-198 Q48H/V53Q/L56R/I61A/Y72T/T74Q/S88A/L90R/W99A/R101M/C107S/K154S/Y158L/T165A) above, with A79L, I80T, S127Q, T136S counted along it
Description: as §1, §2

[6] = system: hNGAL mutein Ya6, SEQ ID NO: 8 (Tb7.N9.N34 with Thr136Ser); test: SPR (Biacore), immobilized Me•DTPA-RNase; assay type: binding, human; settings: vs parental Tb7
Description: as §1, §2

[7] = biological target: T5, hNGAL mutein Yd5, SEQ ID NO: 9 (Tb7.N9.N34 + D77E/T136S) (Homo sapiens, UniProt P80188, C107S/D97E/I100T/I61A/K154S/L56R/L90R/Q48H/R101M/S147Q/S88A/T156S/T165A/T74Q/V53Q/W99L/Y158L/Y72T); test: SPR (Biacore), immobilized Me•DTPA-RNase; assay type: binding; settings: for Kd: from the kinetic analysis, read-out: KD
T5 construct: the mature hNGAL protein and the C-terminal Strep-tag II; OmpA signal peptide (N, cleaved yes); made in house; host or cells: E. coli BL21 or TG1-F- (periplasm), plasmid pNGAL15
T5 sequence (P80188 21-198 with the stated changes): as the sequence (P80188 21-198 Q48H/V53Q/L56R/I61A/Y72T/T74Q/S88A/L90R/W99A/R101M/C107S/K154S/Y158L/T165A) above, with D77E, A79L, I80T, S127Q, T136S counted along it
Description: as §1, §2

[8] = system: hNGAL mutein Yd5, SEQ ID NO: 9 (Tb7.N9.N34 + D77E/T136S); test: SPR (Biacore), immobilized Me•DTPA-RNase; assay type: binding, human; settings: vs parental Tb7
Description: as §1, §2

[9] = biological target: T6, human neutrophil gelatinase-associated lipocalin (hNGAL, lipocalin 2, P80188), wild type, SEQ ID NO: 1 (Homo sapiens, UniProt P80188); test: SPR (Biacore), immobilized Me•DTPA-RNase; assay type: binding; settings: immobilized Y-DTPA-RNaseA
T6 construct: the mature hNGAL protein and the C-terminal Strep-tag II; OmpA signal peptide (N, cleaved yes); made in house; host or cells: E. coli BL21 or TG1-F- (periplasm), plasmid pNGAL14
T6 sequence (P80188 21-198): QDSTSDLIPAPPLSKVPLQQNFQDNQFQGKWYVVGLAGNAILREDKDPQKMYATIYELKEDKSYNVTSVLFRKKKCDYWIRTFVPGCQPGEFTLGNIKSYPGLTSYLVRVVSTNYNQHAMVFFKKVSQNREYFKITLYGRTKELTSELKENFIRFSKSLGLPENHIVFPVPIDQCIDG
Description: as §1, §2

[10] = biological target: T7, hNGAL mutein C26, SEQ ID NO: 10 (Yd5 + L42P/P48L/Q49L/I55T (155T [sic])/K75M) (Homo sapiens, UniProt P80188, C107S/D97E/I100T/I61A/I75T/K154S/K95M/L56R/L62P/L90R/P68L/Q48H/Q69L/R101M/S147Q/S88A/T156S/T165A/T74Q/V53Q/W99L/Y158L/Y72T); test: SPR (Biacore), immobilized Me•DTPA-RNase; assay type: binding
T7 construct: the mature hNGAL protein and the C-terminal Strep-tag II; OmpA signal peptide (N, cleaved yes); made in house; host or cells: E. coli BL21 or TG1-F- (periplasm), plasmid pNGAL15
T7 sequence (P80188 21-198 with the stated changes): as the sequence (P80188 21-198 Q48H/V53Q/L56R/I61A/Y72T/T74Q/S88A/L90R/W99A/R101M/C107S/K154S/Y158L/T165A) above, with L42P, P48L, Q49L, I55T, K75M, D77E, A79L, I80T, S127Q, T136S counted along it
Description: FIG. 2D depicts the kinetic real time analysis of hNGAL variant C26 measured on a Biacore instrument. The Y•DTPA-RNase conjugate was coupled via amine chemistry to a CM5 sensor chip (ΔRU=240) and the purified hNGAL variant C26 was applied at varying concentrations. The measured signal is shown as a grey line whereas the curve fit is depicted as a black line in each case.
as §1, §2

[11] = biological target: T8, hNGAL mutein L1, SEQ ID NO: 28 (C26 + R43P/E44V/K46P/D47E/K50L/M51L) (Homo sapiens, UniProt P80188, C107S/D67E/D97E/E64V/I100T/I61A/I75T/K154S/K66P/K70L/K95M/L56R/L62P/L90R/M71L/P68L/Q48H/Q69L/R101M/R63P/S147Q/S88A/T156S/T165A/T74Q/V53Q/W99L/Y158L/Y72T); test: SPR (Biacore), immobilized Y-DTPA-RNaseA; assay type: binding
T8 construct: the mature hNGAL protein and the C-terminal Strep-tag II; Strep-tag II (C); OmpA signal peptide (N, cleaved yes); made in house; host or cells: E. coli (periplasm)
T8 sequence (P80188 21-198 with the stated changes): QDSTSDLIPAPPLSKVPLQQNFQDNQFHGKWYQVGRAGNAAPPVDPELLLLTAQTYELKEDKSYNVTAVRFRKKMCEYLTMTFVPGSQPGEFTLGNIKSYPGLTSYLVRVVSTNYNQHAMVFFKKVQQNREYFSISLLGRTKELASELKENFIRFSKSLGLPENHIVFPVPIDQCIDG
Description: as §1
The new hNGAL variant L1 was analyzed by SPR as in Example 8 using a Biacore CM-5 chip with the covalently attached Y-DTPA-RNaseA conjugate and applying the purified recombinant protein.

[12] = biological target: T9, hNGAL mutein CL31, SEQ ID NO: 31 (L1 + V44M/N65D/G86S/S87P/S99N/L107F) (Homo sapiens, UniProt P80188, C107P/D67E/D97E/E64M/G106S/I100T/I61A/I75T/K154S/K66P/K70L/K95M/L127F/L56R/L62P/L90R/M71L/N85D/P68L/Q48H/Q69L/R101M/R63P/S119N/S147Q/S88A/T156S/T165A/T74Q/V53Q/W99L/Y158L/Y72T); test: SPR (Biacore), immobilized Y•DTPA-RNase; assay type: binding
T9 construct: the mature hNGAL protein and the C-terminal Strep-tag II; Strep-tag II (C); OmpA signal peptide (N, cleaved yes); made in house; host or cells: E. coli (periplasm)
T9 sequence (P80188 21-198 with the stated changes): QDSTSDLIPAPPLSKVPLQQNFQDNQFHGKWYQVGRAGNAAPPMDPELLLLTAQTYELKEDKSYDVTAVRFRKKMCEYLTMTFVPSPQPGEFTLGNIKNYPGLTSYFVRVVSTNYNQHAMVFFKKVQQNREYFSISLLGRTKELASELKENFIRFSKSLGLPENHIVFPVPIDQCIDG
Description: FIG. 2E depicts the kinetic real time analysis of hNGAL variant CL31 measured on a Biacore instrument at a flow rate of 25 μl/min. The Y•DTPA-RNase conjugate was coupled via amine chemistry to a CM5 sensor chip (ΔRU=300), and the purified hNGAL variant CL31 was applied at varying concentrations as indicated. The measured signal is shown as a gray line and the fitted curve as a black line in each case.
as §1

[13] = from the kinetic analysis, read-out: KD
[14] = read-out: affinity to the metal chelate ligand

Chain of selected hNGAL muteins from the library randomized at positions 33, 36, 41, 52, 54, 68, 70, 79, 81, 134, 136 and 138 (P80188 21-198, stated change not applied): as the sequence (P80188 21-198) above

Molecule: O=C(O)CCCCCN1C(=O)C2C(C1=O)C1(Cl)C(Cl)=C(Cl)C2(Cl)C1(Cl)Cl (stereo not shown) [hexachloronorbornene hapten, hexachloronorbornene N—(CH2)5—COOH]
KD [1]: at least micromolar

koff [2]: 0.1 s⁻¹ | kon [2]: 998000 M⁻¹ s⁻¹ | Kd ([2]; listed as Y-DTPA-RNaseA): 75 to 100 nM | Kd [2]: 100 nM | koff [3]: 0.023 s⁻¹ | kon [3]: 1.61e+06 M⁻¹ s⁻¹ | Kd [3, 13]: 14.3 nM | koff [4]: 0.0208 s⁻¹ | kon [4]: 1.57e+06 M⁻¹ s⁻¹ | Kd [4, 13]: 13.2 nM | koff [5]: 0.00553 s⁻¹ | kon [5]: 1.72e+06 M⁻¹ s⁻¹ | Kd ([5]; listed as Y-DTPA-RNaseA): ~3 nM | Kd [5]: 3.2 nM | koff ([7]; 5 μl/min): 0.00345 s⁻¹ | kon ([7]; 5 μl/min): 984000 M⁻¹ s⁻¹ | Kd ([7]; 5 μl/min, listed as Y-DTPA-RNaseA): ~3 nM | Kd ([7]; 5 μl/min): 3.5 nM | τ1/2 ([7]; half life of dissociation, listed as Y-DTPA-RNaseA): ca. 200 s | koff ([10]; 5 μl/min): 0.000704 s⁻¹ | kon ([10]; 5 μl/min): 2.5e+06 M⁻¹ s⁻¹ | Kd ([10]; 5 μl/min, from the kinetic analysis, read-out: KD): 0.282 nM | Kd [10, 14]: 0.282 nM | Kd [11]: 0.713 nM | association rate constant [11]: 296000 M⁻¹ s⁻¹ | dissociation rate constant [11]: 0.000211 s⁻¹ | association rate constant [12]: 446000 M⁻¹ s⁻¹ | dissociation rate constant [12]: 0.000106 s⁻¹ | half life of dissociation [12]: ca. 1.8 h | Kd [12, 14]: 0.237 nM
B1: Y^3+•DTPA-RNase: p-SCN-Bn-CHX-A″-DTPA covalently coupled to bovine ribonuclease A (about 1:1), charged with Y^3+; ligand is the chelate group (conjugate, UniProt P61823 27-150, looked up)
Ribonuclease pancreatic: KETAAAKFERQHMDSSTSAASSSNYCNQMMKSRNLTKDRCKPVNTFVHESLADVQAVCSQKNVACKNGQTNCYQSYSTMSITDCRETGSSKYPNCAYKTTQANKHIIVACEGNPYVPVHFDASV
modifications: CHX-A''-DTPA chelate with Y3+
notes: p-SCN-Bn-CHX-A″-DTPA covalently coupled to bovine ribonuclease A (about 1:1), charged with Y^3+; ligand is the chelate group
affinity improvement over Tb7 [6]: approximately 30 -fold | affinity improvement over Tb7 [8]: approximately 30 -fold | binding activity [9]: did not exhibit any significant binding activity

Reference: US8420051B2, “Muteins of hNGAL and related proteins with affinity for a given target” (Technische Universitaet Meunchen, priority 2008, dated 2013)
